T1: rat APJ receptor (rat, UniProt Q9JHG3 1-377)
T1 sequence (looked up): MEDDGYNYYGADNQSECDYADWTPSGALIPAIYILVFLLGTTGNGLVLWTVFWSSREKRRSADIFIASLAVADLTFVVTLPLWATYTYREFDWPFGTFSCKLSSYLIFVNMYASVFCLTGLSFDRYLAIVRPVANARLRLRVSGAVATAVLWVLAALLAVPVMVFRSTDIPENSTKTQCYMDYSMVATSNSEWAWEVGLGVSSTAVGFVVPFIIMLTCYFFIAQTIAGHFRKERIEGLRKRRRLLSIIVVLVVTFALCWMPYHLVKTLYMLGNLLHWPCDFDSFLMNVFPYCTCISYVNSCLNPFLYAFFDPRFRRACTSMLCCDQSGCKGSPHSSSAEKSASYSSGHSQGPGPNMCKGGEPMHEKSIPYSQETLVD

T2: human APJ receptor (human, UniProt P35414 1-380)
T2 sequence (looked up): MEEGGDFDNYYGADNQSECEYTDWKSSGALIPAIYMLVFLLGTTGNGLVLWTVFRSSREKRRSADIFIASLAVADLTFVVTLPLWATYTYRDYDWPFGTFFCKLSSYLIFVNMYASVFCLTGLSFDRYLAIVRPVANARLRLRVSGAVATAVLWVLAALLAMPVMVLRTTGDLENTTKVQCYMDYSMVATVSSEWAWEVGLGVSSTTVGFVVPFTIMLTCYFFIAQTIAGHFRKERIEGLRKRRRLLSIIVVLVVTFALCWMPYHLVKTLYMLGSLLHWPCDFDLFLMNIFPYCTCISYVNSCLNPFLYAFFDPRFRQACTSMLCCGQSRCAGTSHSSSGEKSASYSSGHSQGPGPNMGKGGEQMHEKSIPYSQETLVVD

Non-standard residues stand in square brackets, D forms with d. Primed or numbered codes have the meaning given here. No end group written: not given here. Oic = O=C(O)[C@@H]1C[C@@H]2CCCC[C@@H]2N1; Phe(4-Cl) = N[C@@H](Cc1ccc(Cl)cc1)C(=O)O; NMeR = CN[C@@H](CCCNC(=N)N)C(=O)O; hArg = N=C(N)NCCCC[C@H](N)C(=O)O; β3hR = N=C(N)NCCC[C@H](N)CC(=O)O; Cha = N[C@@H](CC1CCCCC1)C(=O)O; β3hN = NC(=O)C[C@H](N)CC(=O)O; β3hL = CC(C)C[C@H](N)CC(=O)O; NMeV = CN[C@H](C(=O)O)C(C)C; β3hK = NCCCC[C@H](N)CC(=O)O; β3hP = O=C(O)C[C@@H]1CCCN1; β3hS = N[C@@H](CO)CC(=O)O; Nle = CCCC[C@H](N)C(=O)O; Orn = NCCC[C@H](N)C(=O)O; Pip′ = not defined here; Aib = CC(C)(N)C(=O)O; βAla = NCCC(=O)O; Sar = CNCC(=O)O

In the first test the target is T1, rat APJ receptor. Nature of the test: cell-based or functional assay.
Take [Orn]F[hArg][hArg]Q[hArg]P[hArg][Cha][β3hS]HKG[Oic][Nle]P[Phe(4-Cl)] [apelin polypeptide SEQ ID NO: 698]: the “EC50 Rat APJ Receptor” value came to 0.734 nM.

On to [Orn]F[hArg][hArg]Q[hArg]P[hArg][Cha]SH[βAla]G[Oic][Nle]P[Phe(4-Cl)] [apelin polypeptide SEQ ID NO: 703], for which the “EC50 Rat APJ Receptor” value worked out at 2.67 nM.

For [Orn]F[hArg][hArg]Q[hArg]P[hArg][Cha]S[NMeV]KG[Oic][Nle]P[Phe(4-Cl)] [apelin polypeptide SEQ ID NO: 679], the “EC50 Rat APJ Receptor” value was 33 nM.

As to [Orn]F[hArg][hArg]Q[hArg][Aib][hArg][Cha]SHKG[Oic][Nle]P[Phe(4-Cl)] [apelin polypeptide SEQ ID NO: 677], the “EC50 Rat APJ Receptor” value was 3.48 nM.

[Orn]F[hArg][hArg]Q[hArg][Sar][hArg][Cha]SHKG[Oic][Nle]P[Phe(4-Cl)] [apelin polypeptide SEQ ID NO: 676]: the “EC50 Rat APJ Receptor” value was 0.84 nM.

As for [Orn]F[hArg][hArg][β3hN][hArg]P[hArg][Cha]SHKG[Oic][Nle]P[Phe(4-Cl)] [apelin polypeptide SEQ ID NO: 691], the “EC50 Rat APJ Receptor” value was 0.424 nM.

[Orn]F[hArg][hArg]Q[hArg]P[hArg][Cha]SHK[Sar][Oic][Nle]P[Phe(4-Cl)] [apelin polypeptide SEQ ID NO: 680]: the “EC50 Rat APJ Receptor” value was 0.401 nM.

For the molecule [Orn]F[hArg][hArg]Q[hArg]P[hArg][Cha]SH[β3hK]G[Oic][Nle]P[Phe(4-Cl)] [apelin polypeptide SEQ ID NO: 701], the “EC50 Rat APJ Receptor” value was determined as 0.879 nM.

For the molecule [Orn]F[hArg][hArg]Q[hArg]P[β3hR][Cha]SHKG[Oic][Nle]P[Phe(4-Cl)] [apelin polypeptide SEQ ID NO: 696], the “EC50 Rat APJ Receptor” value is 0.3 nM.

With Ac-[hArg]Q[dR]P[NMeR][Cha]SHKG[Oic][Nle]P[Phe(4-Cl)]-OH [apelin polypeptide SEQ ID NO: 23], the “EC50 Rat APJ Receptor” value was found to be 32.2 nM.

For the molecule [Orn]F[hArg][hArg]Q[hArg]P[hArg][Cha]SHKG[β3hP][Nle]P[Phe(4-Cl)] [apelin polypeptide SEQ ID NO: 706], the “EC50 Rat APJ Receptor” value came to 4.39 nM.

Regarding [Orn]F[hArg][hArg]Q[hArg]P[hArg][Cha]SHKG[Sar][Nle]P[Phe(4-Cl)] [apelin polypeptide SEQ ID NO: 683], the “EC50 Rat APJ Receptor” value worked out at 0.926 nM.

With [Orn]F[hArg][hArg]Q[β3hR]P[hArg][Cha]SHKG[Oic][Nle]P[Phe(4-Cl)] [apelin polypeptide SEQ ID NO: 693], the “EC50 Rat APJ Receptor” value is 0.505 nM.

For the molecule [Orn]F[hArg][hArg]Q[hArg][Pip′][hArg][Cha]SHKG[Oic][Nle]P[Phe(4-Cl)] [apelin polypeptide SEQ ID NO: 695], the “EC50 Rat APJ Receptor” value was found to be 0.384 nM.

For the molecule [Orn]F[hArg][hArg]Q[hArg]P[hArg][β3hL]SHKG[Oic][Nle]P[Phe(4-Cl)] [apelin polypeptide SEQ ID NO: 697], the “EC50 Rat APJ Receptor” value was 0.495 nM.

The target of the next test is T2, human APJ receptor. Nature of the test: cell-based or functional assay.
As to [Orn]F[hArg][hArg]Q[hArg]P[hArg][Cha][β3hS]HKG[Oic][Nle]P[Phe(4-Cl)] [apelin polypeptide SEQ ID NO: 698], the “EC50 Human APJ Receptor” value was 0.539 nM.

In the case of [Orn]F[hArg][hArg]Q[hArg]P[hArg][Cha]SH[βAla]G[Oic][Nle]P[Phe(4-Cl)] [apelin polypeptide SEQ ID NO: 703], the “EC50 Human APJ Receptor” value came to 1.26 nM.

Turning to [Orn]F[hArg][hArg]Q[hArg]P[hArg][Cha]S[NMeV]KG[Oic][Nle]P[Phe(4-Cl)] [apelin polypeptide SEQ ID NO: 679], the “EC50 Human APJ Receptor” value turned out to be 3.63 nM.

[Orn]F[hArg][hArg]Q[hArg][Aib][hArg][Cha]SHKG[Oic][Nle]P[Phe(4-Cl)] [apelin polypeptide SEQ ID NO: 677]: the “EC50 Human APJ Receptor” value is 3.5 nM.

Consider [Orn]F[hArg][hArg]Q[hArg][Sar][hArg][Cha]SHKG[Oic][Nle]P[Phe(4-Cl)] [apelin polypeptide SEQ ID NO: 676], for which the “EC50 Human APJ Receptor” value turned out to be 0.762 nM.

As to [Orn]F[hArg][hArg][β3hN][hArg]P[hArg][Cha]SHKG[Oic][Nle]P[Phe(4-Cl)] [apelin polypeptide SEQ ID NO: 691], the “EC50 Human APJ Receptor” value came to 0.453 nM.

As for [Orn]F[hArg][hArg]Q[hArg]P[hArg][Cha]SHK[Sar][Oic][Nle]P[Phe(4-Cl)] [apelin polypeptide SEQ ID NO: 680], the “EC50 Human APJ Receptor” value worked out at 0.116 nM.

On to [Orn]F[hArg][hArg]Q[hArg]P[hArg][Cha]SH[β3hK]G[Oic][Nle]P[Phe(4-Cl)] [apelin polypeptide SEQ ID NO: 701], for which the “EC50 Human APJ Receptor” value was 0.316 nM.

Regarding [Orn]F[hArg][hArg]Q[hArg]P[β3hR][Cha]SHKG[Oic][Nle]P[Phe(4-Cl)] [apelin polypeptide SEQ ID NO: 696], the “EC50 Human APJ Receptor” value was 0.261 nM.

With Ac-[hArg]Q[dR]P[NMeR][Cha]SHKG[Oic][Nle]P[Phe(4-Cl)]-OH [apelin polypeptide SEQ ID NO: 23], the “EC50 Human APJ Receptor” value was 0.384 nM.

Take [Orn]F[hArg][hArg]Q[hArg]P[hArg][Cha]SHKG[β3hP][Nle]P[Phe(4-Cl)] [apelin polypeptide SEQ ID NO: 706]: the “EC50 Human APJ Receptor” value was 1.99 nM.

Regarding [Orn]F[hArg][hArg]Q[hArg]P[hArg][Cha]SHKG[Sar][Nle]P[Phe(4-Cl)] [apelin polypeptide SEQ ID NO: 683], the “EC50 Human APJ Receptor” value is 0.379 nM.

As for [Orn]F[hArg][hArg]Q[β3hR]P[hArg][Cha]SHKG[Oic][Nle]P[Phe(4-Cl)] [apelin polypeptide SEQ ID NO: 693], the “EC50 Human APJ Receptor” value was 0.229 nM.

Regarding [Orn]F[hArg][hArg]Q[hArg][Pip′][hArg][Cha]SHKG[Oic][Nle]P[Phe(4-Cl)] [apelin polypeptide SEQ ID NO: 695], the “EC50 Human APJ Receptor” value is 0.313 nM.

Turning to [Orn]F[hArg][hArg]Q[hArg]P[hArg][β3hL]SHKG[Oic][Nle]P[Phe(4-Cl)] [apelin polypeptide SEQ ID NO: 697], the “EC50 Human APJ Receptor” value came to 0.225 nM.

The record behind these values is patent publication US10941182 (Amgen, dated 2021).
